Laboratory results from the supplement of paper PMC12783771.
± gives the standard deviation of the averaged measurements.

B1: library; numbered along this chain (parent)
chain: MNIQIGELAKRTACPVVTIRFYEQEGLLPPPGRSRGNFRLYGEEHVERLQFIRHCRSLDMPLSDVRTLLSYRKRPDQDCGEVNMLLDEHIRQVESRIGALLELKHHLVELREACSGARPAQSCGILQGLSDCVCDTRGTTAHPSD

Experiments:
[1] = variants of: B1; assay: sfGFP reporter fluorescence (15 h) (µM FITC); higher = higher leak; conditions: library round: Round 0; ligand: none
Method in brief: (§1)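 An Echo normalized PCR-made linear PbrR templates to 5 nM and assembled 1 μL reactions in BL21 Star (DE3) PANOx-SP extract carrying the pPbrR-sfGFP reporter plasmid and 30 μg/mL GamS. Reactions received 1 µM lead chloride, 30 µM zinc acetate or no metal and stood 15 hr at 30 °C. Fluorescence at 485/528 nm (Synergy Neo2) was converted with FITC standard curves made in 50 mM sodium borate pH 8.5. Endpoint sfGFP signal is given in µM FITC, from up to three biological replicates.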

[2] = variants of: B1; assay: sfGFP reporter fluorescence (15 h) (µM FITC); higher = stronger transcriptional activation; conditions: library round: Round 0
Method in brief: as §1

With V46K the sfGFP reporter fluorescence [1] was 0.0599 ± 0.00078, the sfGFP reporter fluorescence ([2]; ligand: 1 µM Pb) was 0.0922 ± 0.0023 and the sfGFP reporter fluorescence ([2]; ligand: 30 µM Zn) was 0.908 ± 0.097.

Work on V46P yielded a sfGFP reporter fluorescence [1] of 0.0537 ± 0.0023, a sfGFP reporter fluorescence ([2]; ligand: 1 µM Pb) of 0.0592 ± 0.0039 and a sfGFP reporter fluorescence ([2]; ligand: 30 µM Zn) of 0.0641 ± 0.0042.

Work on V46N yielded a sfGFP reporter fluorescence [1] of 0.0535 ± 0.0021, a sfGFP reporter fluorescence ([2]; ligand: 1 µM Pb) of 0.0665 ± 0.0096 and a sfGFP reporter fluorescence ([2]; ligand: 30 µM Zn) of 0.108 ± 0.0023.

L101A showed a sfGFP reporter fluorescence [1] of 0.0632 ± 0.0013, a sfGFP reporter fluorescence ([2]; ligand: 1 µM Pb) of 0.0746 ± 0.0013 and a sfGFP reporter fluorescence ([2]; ligand: 30 µM Zn) of 0.555 ± 0.17.

T12A gave a sfGFP reporter fluorescence [1] of 0.0564 ± 0.0026, a sfGFP reporter fluorescence ([2]; ligand: 1 µM Pb) of 0.0733 ± 0.0015 and a sfGFP reporter fluorescence ([2]; ligand: 30 µM Zn) of 0.611 ± 0.019.

L129V showed a sfGFP reporter fluorescence [1] of 0.0557 ± 0.001, a sfGFP reporter fluorescence ([2]; ligand: 1 µM Pb) of 0.05717 ± 0.00052 and a sfGFP reporter fluorescence ([2]; ligand: 30 µM Zn) of 0.05351 ± 0.00052.

Work on L129G yielded a sfGFP reporter fluorescence [1] of 0.0526 ± 0.00078, a sfGFP reporter fluorescence ([2]; ligand: 1 µM Pb) of 0.0542 ± 0.001 and a sfGFP reporter fluorescence ([2]; ligand: 30 µM Zn) of 0.0509 ± 0.0021.

L129I gave a sfGFP reporter fluorescence [1] of 0.0535 ± 0.0021, a sfGFP reporter fluorescence ([2]; ligand: 1 µM Pb) of 0.0592 ± 0.0013 and a sfGFP reporter fluorescence ([2]; ligand: 30 µM Zn) of 0.163 ± 0.012.

For L129A, the sfGFP reporter fluorescence [1] was 0.0572 ± 0.0021, the sfGFP reporter fluorescence ([2]; ligand: 1 µM Pb) was 0.0561 ± 0.001 and the sfGFP reporter fluorescence ([2]; ligand: 30 µM Zn) was 0.0574 ± 0.0018.

In the case of H105A, the sfGFP reporter fluorescence [1] is reported as 0.0623, the sfGFP reporter fluorescence ([2]; ligand: 1 µM Pb) is reported as 0.0687 ± 0.0044 and the sfGFP reporter fluorescence ([2]; ligand: 30 µM Zn) is reported as 0.769 ± 0.086.

C114V showed a sfGFP reporter fluorescence [1] of 0.0566 ± 0.00078, a sfGFP reporter fluorescence ([2]; ligand: 1 µM Pb) of 0.0555 ± 0.00078 and a sfGFP reporter fluorescence ([2]; ligand: 30 µM Zn) of 0.05186 ± 0.00026.

C114E gave a sfGFP reporter fluorescence [1] of 0.05699 ± 0.00026, a sfGFP reporter fluorescence ([2]; ligand: 1 µM Pb) of 0.0579 ± 0.001 and a sfGFP reporter fluorescence ([2]; ligand: 30 µM Zn) of 0.0533 ± 0.0023.

Variant C114I has a sfGFP reporter fluorescence [1] of 0.05717 ± 0.00052, a sfGFP reporter fluorescence ([2]; ligand: 1 µM Pb) of 0.0942 ± 0.0015 and a sfGFP reporter fluorescence ([2]; ligand: 30 µM Zn) of 0.863 ± 0.012.

R39P showed a sfGFP reporter fluorescence [1] of 0.0581 ± 0.00078, a sfGFP reporter fluorescence ([2]; ligand: 1 µM Pb) of 0.0597 ± 0.001 and a sfGFP reporter fluorescence ([2]; ligand: 30 µM Zn) of 0.0581 ± 0.0029.

R39S gave a sfGFP reporter fluorescence [1] of 0.0607 ± 0.00078, a sfGFP reporter fluorescence ([2]; ligand: 1 µM Pb) of 0.0603 ± 0.0013 and a sfGFP reporter fluorescence ([2]; ligand: 30 µM Zn) of 0.0592 ± 0.0023.

Work on R39K yielded a sfGFP reporter fluorescence [1] of 0.0612 ± 0.0015, a sfGFP reporter fluorescence ([2]; ligand: 1 µM Pb) of 0.0623 ± 0.0036 and a sfGFP reporter fluorescence ([2]; ligand: 30 µM Zn) of 0.14 ± 0.022.

Variant R39D has a sfGFP reporter fluorescence [1] of 0.0603 ± 0.0018, a sfGFP reporter fluorescence ([2]; ligand: 1 µM Pb) of 0.0608 ± 0.0026 and a sfGFP reporter fluorescence ([2]; ligand: 30 µM Zn) of 0.0597 ± 0.0036.

For V133A, the sfGFP reporter fluorescence [1] was 0.06341 ± 0.00052, the sfGFP reporter fluorescence ([2]; ligand: 1 µM Pb) was 0.0746 ± 0.007 and the sfGFP reporter fluorescence ([2]; ligand: 30 µM Zn) was 0.769 ± 0.021.

L28W gave a sfGFP reporter fluorescence [1] of 0.061 ± 0.0018, a sfGFP reporter fluorescence ([2]; ligand: 1 µM Pb) of 0.0821 ± 0.001 and a sfGFP reporter fluorescence ([2]; ligand: 30 µM Zn) of 0.878 ± 0.019.

L58K gave a sfGFP reporter fluorescence [1] of 0.0629 ± 0.0013, a sfGFP reporter fluorescence ([2]; ligand: 1 µM Pb) of 0.06908 ± 0.00026 and a sfGFP reporter fluorescence ([2]; ligand: 30 µM Zn) of 0.0735 ± 0.0034.

Variant L58E has a sfGFP reporter fluorescence [1] of 0.0619 ± 0.001, a sfGFP reporter fluorescence ([2]; ligand: 1 µM Pb) of 0.0625 ± 0.0013 and a sfGFP reporter fluorescence ([2]; ligand: 30 µM Zn) of 0.064 ± 0.0018.

L58T showed a sfGFP reporter fluorescence [1] of 0.0588 ± 0.0018, a sfGFP reporter fluorescence ([2]; ligand: 1 µM Pb) of 0.05864 ± 0.00052 and a sfGFP reporter fluorescence ([2]; ligand: 30 µM Zn) of 0.05644 ± 0.00052.

Variant P61N D64K K104V L107C has a sfGFP reporter fluorescence [1] of 0.676 ± 0.011, a sfGFP reporter fluorescence ([2]; ligand: 1 µM Pb) of 2.12 ± 0.066 and a sfGFP reporter fluorescence ([2]; ligand: 30 µM Zn) of 2.74 ± 0.35.

In the case of I3P, the sfGFP reporter fluorescence [1] is reported as 0.0592 ± 0.0018, the sfGFP reporter fluorescence ([2]; ligand: 1 µM Pb) is reported as 0.0583 ± 0.0036 and the sfGFP reporter fluorescence ([2]; ligand: 30 µM Zn) is reported as 0.0546 ± 0.0026.

I3D showed a sfGFP reporter fluorescence [1] of 0.06139 ± 0.00026, a sfGFP reporter fluorescence ([2]; ligand: 1 µM Pb) of 0.06011 ± 0.00052 and a sfGFP reporter fluorescence ([2]; ligand: 30 µM Zn) of 0.08118 ± 0.00078.

Variant Q4A has a sfGFP reporter fluorescence [1] of 0.0537 ± 0.0044, a sfGFP reporter fluorescence ([2]; ligand: 1 µM Pb) of 0.0555 ± 0.0018 and a sfGFP reporter fluorescence ([2]; ligand: 30 µM Zn) of 0.4821 ± 0.0029.

D135N gave a sfGFP reporter fluorescence [1] of 0.0588 ± 0.0034, a sfGFP reporter fluorescence ([2]; ligand: 1 µM Pb) of 0.0847 ± 0.0078 and a sfGFP reporter fluorescence ([2]; ligand: 30 µM Zn) of 1.18 ± 0.32.

D135A gave a sfGFP reporter fluorescence [1] of 0.0733 ± 0.0015, a sfGFP reporter fluorescence ([2]; ligand: 1 µM Pb) of 0.0834 ± 0.0029 and a sfGFP reporter fluorescence ([2]; ligand: 30 µM Zn) of 0.335 ± 0.0078.

Work on D135Q yielded a sfGFP reporter fluorescence [1] of 0.0574 ± 0.0023, a sfGFP reporter fluorescence ([2]; ligand: 1 µM Pb) of 0.0826 ± 0.0023 and a sfGFP reporter fluorescence ([2]; ligand: 30 µM Zn) of 1.28 ± 0.13.

H89F showed a sfGFP reporter fluorescence [1] of 0.0581 ± 0.0039, a sfGFP reporter fluorescence ([2]; ligand: 1 µM Pb) of 0.0566 ± 0.0039 and a sfGFP reporter fluorescence ([2]; ligand: 30 µM Zn) of 0.063 ± 0.0021.

With H89E the sfGFP reporter fluorescence [1] was 0.0647 ± 0.0023, the sfGFP reporter fluorescence ([2]; ligand: 1 µM Pb) was 0.0795 ± 0.0031 and the sfGFP reporter fluorescence ([2]; ligand: 30 µM Zn) was 0.139 ± 0.0023.

H89V gave a sfGFP reporter fluorescence [1] of 0.0592 ± 0.0034, a sfGFP reporter fluorescence ([2]; ligand: 1 µM Pb) of 0.0575 ± 0.0021 and a sfGFP reporter fluorescence ([2]; ligand: 30 µM Zn) of 0.05681 ± 0.00052.

In the case of G26A, the sfGFP reporter fluorescence [1] is reported as 0.06304 ± 0.00052, the sfGFP reporter fluorescence ([2]; ligand: 1 µM Pb) is reported as 0.0724 ± 0.0023 and the sfGFP reporter fluorescence ([2]; ligand: 30 µM Zn) is reported as 0.512 ± 0.033.

Variant P61E has a sfGFP reporter fluorescence [1] of 0.0693, a sfGFP reporter fluorescence ([2]; ligand: 1 µM Pb) of 0.0991 ± 0.0049 and a sfGFP reporter fluorescence ([2]; ligand: 30 µM Zn) of 0.338 ± 0.042.

P61T showed a sfGFP reporter fluorescence [1] of 0.0865 ± 0.001, a sfGFP reporter fluorescence ([2]; ligand: 1 µM Pb) of 0.211 ± 0.006 and a sfGFP reporter fluorescence ([2]; ligand: 30 µM Zn) of 1.94 ± 0.03.

P61G showed a sfGFP reporter fluorescence [1] of 0.0819 ± 0.0029, a sfGFP reporter fluorescence ([2]; ligand: 1 µM Pb) of 0.2936 ± 0.0021 and a sfGFP reporter fluorescence ([2]; ligand: 30 µM Zn) of 2.2 ± 0.053.

In the case of P61I, the sfGFP reporter fluorescence [1] is reported as 0.0553 ± 0.0067, the sfGFP reporter fluorescence ([2]; ligand: 1 µM Pb) is reported as 0.06414 ± 0.00052 and the sfGFP reporter fluorescence ([2]; ligand: 30 µM Zn) is reported as 0.112 ± 0.00026.

P61Q gave a sfGFP reporter fluorescence [1] of 0.0755 ± 0.0015, a sfGFP reporter fluorescence ([2]; ligand: 1 µM Pb) of 0.148 ± 0.0065 and a sfGFP reporter fluorescence ([2]; ligand: 30 µM Zn) of 1.07 ± 0.024.

For P61D, the sfGFP reporter fluorescence [1] was 0.0729, the sfGFP reporter fluorescence ([2]; ligand: 1 µM Pb) was 0.123 ± 0.0044 and the sfGFP reporter fluorescence ([2]; ligand: 30 µM Zn) was 0.709 ± 0.02.

In the case of P61N D64K G128M, the sfGFP reporter fluorescence [1] is reported as 1.01 ± 0.069, the sfGFP reporter fluorescence ([2]; ligand: 1 µM Pb) is reported as 2.17 ± 0.97 and the sfGFP reporter fluorescence ([2]; ligand: 30 µM Zn) is reported as 4.15 ± 0.24.

Work on C134G yielded a sfGFP reporter fluorescence [1] of 0.0651 ± 0.0029, a sfGFP reporter fluorescence ([2]; ligand: 1 µM Pb) of 0.0841 ± 0.0013 and a sfGFP reporter fluorescence ([2]; ligand: 30 µM Zn) of 1.35 ± 0.059.

In the case of C134D, the sfGFP reporter fluorescence [1] is reported as 0.06157 ± 0.00052, the sfGFP reporter fluorescence ([2]; ligand: 1 µM Pb) is reported as 0.0684 ± 0.0018 and the sfGFP reporter fluorescence ([2]; ligand: 30 µM Zn) is reported as 1.004 ± 0.008.

For C134Y, the sfGFP reporter fluorescence [1] was 0.072 ± 0.0034, the sfGFP reporter fluorescence ([2]; ligand: 1 µM Pb) was 0.154 ± 0.012 and the sfGFP reporter fluorescence ([2]; ligand: 30 µM Zn) was 1.49 ± 0.19.

For L85F, the sfGFP reporter fluorescence [1] was 0.057 ± 0.0029, the sfGFP reporter fluorescence ([2]; ligand: 1 µM Pb) was 0.0559 ± 0.0013 and the sfGFP reporter fluorescence ([2]; ligand: 30 µM Zn) was 0.0828 ± 0.0021.
